In assay [1] the target is T1, SARS-CoV-2 Spike ectodomain (tri-S), Wuhan (SARS-CoV-2, UniProt P0DTC2 14-1208). As to the kind of experiment: ELISA. Also on record: unit not given beside the values. For orientation: ELISA stands for enzyme-linked immunosorbent assay.
Assay [2] addresses SARS-CoV-2 RBD (B.1.351) domain (SARS-CoV-2). The assay is described as follows: ELISA. Also on record: unit not given beside the values.
For assay [3], the target named is SARS-CoV-2 delta plus variant RBD (SARS-CoV-2). The assay is described as follows: ELISA. Further details: unit not given beside the values.
Assay [4] deals with SARS-CoV-2 RBD (B.1.1.7) domain (SARS-CoV-2). The assay is described as follows: ELISA. Also on record: unit not given beside the values.
Assay [5] has as its target T2, SARS-CoV-2 kappa variant B.1.617.1/3 RBD domain (SARS-CoV-2). The assay is described as follows: ELISA. Further details: unit not given beside the values.
In assay [6] the target is SARS-CoV-2 RBD (P.1) domain (SARS-CoV-2). As to the kind of experiment: ELISA. Further details: unit not given beside the values.
Assay [7] deals with T3, SARS-CoV-2 delta variant B.1.617.2/3 RBD domain (SARS-CoV-2). As to the kind of experiment: ELISA. Further details: unit not given beside the values.
For assay [8], the target named is T4, SARS-CoV-2 spike, Delta variant (B.1.617.2), on virus or pseudotyped particles (SARS-CoV-2). The assay is described as follows: cell-based or functional assay.
Assay [9] has as its target SARS-CoV-2 RBD (B.1.351) domain (SARS-CoV-2). The assay is described as follows: RBD-ACE2 competition ELISA. Also on record: unit not given beside the values.
The target in assay [10] is SARS-CoV-2 delta plus variant RBD (SARS-CoV-2). The assay is described as follows: RBD-ACE2 competition ELISA. Also on record: unit not given beside the values.
For assay [11], the target named is SARS-CoV-2 RBD (B.1.1.7) domain (SARS-CoV-2). The assay is described as follows: RBD-ACE2 competition ELISA. Also on record: unit not given beside the values.
In assay [12] the target is T2, SARS-CoV-2 kappa variant B.1.617.1/3 …. The assay is described as follows: RBD-ACE2 competition ELISA. Further details: unit not given beside the values.
The target in assay [13] is SARS-CoV-2 RBD (P.1) domain (SARS-CoV-2). The assay is described as follows: RBD-ACE2 competition ELISA. Also on record: unit not given beside the values.
Assay [14] deals with T3, SARS-CoV-2 delta variant B.1.617.2/3 …. The assay is described as follows: RBD-ACE2 competition ELISA. Further details: unit not given beside the values.
For assay [15], the target named is SARS-CoV-2 omicron variant B.1.1.529 Spike ectodomain (tri-S, HexaPro) (SARS-CoV-2, UniProt P0DTC2 14-1208). The assay is described as follows: ELISA. Also on record: unit not given beside the values.
Assay [16] deals with SARS-CoV-2 RBD (B.1.351) domain (SARS-CoV-2). The assay is described as follows: ELISA. Also on record: unit not given beside the values. This is another data set of the same source.
Assay [17] deals with SARS-CoV-2 omicron variant B.1.1.529 RBD domain (SARS-CoV-2). As to the kind of experiment: ELISA. Further details: unit not given beside the values.
The target of assay [18] is T3, SARS-CoV-2 delta variant B.1.617.2/3 …. As to the kind of experiment: RBD-ACE2 competition ELISA.
In assay [19] the target is SARS-CoV-2 spike, Beta variant (B.1.351), on virus or pseudotyped particles (SARS-CoV-2). The assay is described as follows: cell-based or functional assay.
The target in assay [20] is SARS-CoV-2 spike, Gamma variant (P.1), on virus or pseudotyped particles (SARS-CoV-2). The assay is described as follows: cell-based or functional assay.
Assay [21] addresses T4, SARS-CoV-2 spike, Delta variant …. As to the kind of experiment: cell-based or functional assay. This is another data set of the same source.
For assay [22], the target named is T1, SARS-CoV-2 Spike ectodomain (tri-S), …. As to the kind of experiment: ELISA.
For assay [23] the target is unchanged. The assay is described as follows: infrared immunoblot on heat-denatured tri-S.

B1: Cv2.5179 (recombinant human IgG1) (antibody, V domains shown)
VH: QVQLVQSGPEVKKPGTSVKVSCKASGFTFTSSAVQWVRQARGQRLEWIGWIVVGSGNTNYAQKFQERVTITRDMSTSTAYMELSSLRSEDTAVYYCAAPHCSSTSCYDAFDIWGQGTMVTVSS
VL: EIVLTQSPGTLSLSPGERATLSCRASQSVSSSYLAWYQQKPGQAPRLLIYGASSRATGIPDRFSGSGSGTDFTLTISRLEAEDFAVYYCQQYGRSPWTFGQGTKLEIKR
notes: also called Cv2.5179 IgG
Regarding B1, the “AUC (Binding)” value in [1] was found to be 12; in assay [2], 11; in [3], 12; in assay [4] it was 11; in [5] it was 12; in assay [6] it was 11. Also, the “AUC (Binding)” value in assay [7] is 12. For the same molecule, the “IC50, S-Fuse neutralisation” value in assay [8] is 0.0052 µg/mL. The “AUC (Blocking)” value in assay [9] amounted to 49; in assay [10] it was 144; in [11], 64; in [12], 114; in [13] it was 50; in assay [14], 115. The AUC in [15] is 3; in [16], 12; in assay [17], 2. Further, the “IC50 (read off the curve)” value in assay [18] was approximately 0.4 µg/mL.

B2: LY-CoV555 (parental IgG1 version) (antibody, V domains shown)
VH: QVQLVQSGAEVKKPGSSVKVSCKASGGTFSNYAISWVRQAPGQGLEWMGRIIPILGIANYAQKFQGRVTITADKSTSTAYMELSSLRSEDTAVYYCARGYYEARHYYYYYAMDVWGQGTAVTVSS
VL: not shown
As for B2, the “IC50, in vitro neutralisation” value in [19], in [20] and in [21] was more than 25 nM throughout.

B3: CV2.1174 (antibody, V domains shown)
VH: EVQLVESGPEVKKPGTSVKVSCKASGFTFTRSAMQWVRQARGQRLEWIGWIVVGSGNTNYAQKFQERVTITRDMSTSTAYMELSSLRSEDTAVYYCAARQDYYYYGMDVWGQGTTVTVSS
VL: DIQMTQSPSSLSASVGDRVTITCRASQGMSNSLDWDQQKPGKAPKLLLYAASRLKSGVPSRFSGSGSGTDYTLTISSLQPEDFATYYCQQYYSDPPKTFGQGTKVEIK
Regarding B3, the binding result in assay [22] is recorded as “no binding (tested: 10 µg/ml)”.

B4: CB6 (parental IgG1 version) (antibody, V domains shown)
VH: EVQLVESGGGLVQPGGSLRLSCAASGFTVSSNYMSWVRQAPGKGLEWVSVIYSGGSTFYADSVKGRFTISRDNSMNTLFLQMNSLRAEDTAVYYCARVLPMYGDYLDYWGQGTLVTVSS
VL: not shown
For the molecule B4, the “IC50, in vitro neutralisation” value in [19] and in assay [20] was more than 25 nM throughout.

B5: Cv2.3132 (IgG) (antibody, V domains shown)
VH: EVQLVESGGGLVKPGGSLRLSCAASGFTFSDYYMSWIRQAPGKGLEWVSYISSSGSVQYYADSVKGRFTISRDNAENSLYLQMNSLRAEDTAVYYCARYYYDSSGYWKRLDYWGQGTLVTVSS
VL: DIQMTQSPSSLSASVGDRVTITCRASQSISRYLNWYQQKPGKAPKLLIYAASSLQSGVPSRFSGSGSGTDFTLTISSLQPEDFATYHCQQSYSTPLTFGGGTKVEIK
For the molecule B5, the binding result in assay [23] is recorded as “binds”.

B6: CV2.1388 (antibody)
heavy chain: QVQLVQSGPEVKKPGTSVKVSCKASGFTFTSSAVQWVRQARGQRLEWIGWIVVGSGDTNYAQKFQERVTITRDMSTSTAYMELSSLRSEDTAVYYCATDRQAGSRTYYFPGEGWFDPWGQGTLVTVSS
light chain: QSVLTQPPSVSAAPGQKVTISCSGSTTNIGNNYVSWYQRLPGTAPKLLIYDNNKRPSGIPDRFSGSKSGTSATLGITGLQTGDEADYYCGTWDSSLSGVVFRRRDQADRPR
As for B6, the binding result in assay [22] is “no binding (tested: 10 µg/ml)”.

These data come from patent US20240336672A1 (INSTITUT PASTEUR, published 2024).
